# According to patent publication US20230002480A1:
# Assays:
# Experiment in all cases: cell-based or functional assay
# [1] = molecular target: HIV-1 Env of pseudovirus ZM249M.PL1 (HIV-1)
# [2] = molecular target: HIV-1 Env of pseudovirus Q461.e2 (HIV-1)
# [3] = molecular target: HIV-1 Env of pseudovirus MS208.A1 (HIV-1)
# [4] = molecular target: HIV-1 Env of pseudovirus ZM109F.PB4 (HIV-1)
# [5] = molecular target: HIV-1 Env of pseudovirus WEAU_d15_410_787 (HIV-1)
# [6] = molecular target: HIV-1 Env of pseudovirus Ce1086_B2 (HIV-1)
# [7] = molecular target: HIV-1 Env of pseudovirus Du156.12 (HIV-1)
# [8] = molecular target: HIV-1 Env of pseudovirus C2101.c01 (HIV-1)
# [9] = molecular target: HIV-1 Env of pseudovirus Q259.d2.17 (HIV-1)
# [10] = molecular target: HIV-1 Env of pseudovirus 1054_07_TC4_1499 (HIV-1)
# [11] = molecular target: HIV-1 Env of pseudovirus A07412M1.vrc12 (HIV-1)
# [12] = molecular target: HIV-1 Env of pseudovirus Q842.d12 (HIV-1)
# [13] = molecular target: HIV-1 Env of pseudovirus 620345.c01 (HIV-1)
# [14] = molecular target: HIV-1 Env of pseudovirus BJOX028000.10.3 (HIV-1)
# [15] = molecular target: HIV-1 Env of pseudovirus 928-28 (HIV-1)
# [16] = molecular target: HIV-1 Env of pseudovirus Ce1172_H1 (HIV-1)
# [17] = molecular target: HIV-1 Env of pseudovirus 6535.3 (HIV-1)
# [18] = molecular target: HIV-1 Env of pseudovirus 231966.c02 (HIV-1)
# [19] = molecular target: HIV-1 Env of pseudovirus CNE17 (HIV-1)
# [20] = molecular target: HIV-1 Env of pseudovirus Ce2060_G9 (HIV-1)
# [21] = molecular target: HIV-1 Env of pseudovirus 263-8 (HIV-1)
# [22] = molecular target: HIV-1 Env of pseudovirus CNE58 (HIV-1)
# [23] = molecular target: HIV-1 Env of pseudovirus X2088_c9 (HIV-1)
# [24] = molecular target: HIV-1 Env of pseudovirus 211-9 (HIV-1)
# [25] = molecular target: HIV-1 Env of pseudovirus Q769.d22 (HIV-1)
# [26] = molecular target: HIV-1 Env of pseudovirus QH0692.42 (HIV-1)
# [27] = molecular target: HIV-1 Env of pseudovirus CNE5 (HIV-1)
# [28] = molecular target: HIV-1 Env of pseudovirus ZM247v1(Rev-) (HIV-1)
# [29] = molecular target: HIV-1 Env of pseudovirus HIV-16845-2.22 (HIV-1)
# [30] = molecular target: HIV-1 Env of pseudovirus Ce0682_E4 (HIV-1)
# [31] = molecular target: HIV-1 Env of pseudovirus P1981_C5_3 (HIV-1)
# [32] = molecular target: HIV-1 Env of pseudovirus Ce2010_F5 (HIV-1)
# [33] = molecular target: HIV-1 Env of pseudovirus CNE19 (HIV-1)
# [34] = molecular target: HIV-1 Env of pseudovirus 6041.v3.c23 (HIV-1)
# [35] = molecular target: HIV-1 Env of pseudovirus PVO.4 (HIV-1)
# [36] = molecular target: HIV-1 Env of pseudovirus 3301.v1.c24 (HIV-1)
substance,measurement,setting,value
3BNC117 (antibody),neutralization IC50,[1],0.03 µg/mL
same,neutralization IC80,[1],0.11 µg/mL
same,neutralization IC50,[2],0.03 µg/mL
same,neutralization IC80,[2],0.09 µg/mL
same,neutralization IC50,[3],0.01 µg/mL
same,neutralization IC80,[3],0.09 µg/mL
same,neutralization IC50,[4],0.14 µg/mL
same,neutralization IC80,[4],0.88 µg/mL
same,neutralization IC50,[5],0.05 µg/mL
same,neutralization IC80,[5],0.19 µg/mL
same,neutralization IC50,[6],0.09 µg/mL
same,neutralization IC80,[6],0.31 µg/mL
same,neutralization IC50,[7],0.02 µg/mL
same,neutralization IC80,[7],0.08 µg/mL
same,"IC50, titer in TZM.bl cells",[8],0.05 µg/mL
same,"IC80, titer in TZM.bl cells",[8],0.31 µg/mL
same,neutralization IC50,[9],0.01 µg/mL
same,neutralization IC80,[9],0.05 µg/mL
same,neutralization IC50,[10],0.07 µg/mL
same,neutralization IC80,[10],0.49 µg/mL
same,"IC50, titer in TZM.bl cells",[11],0.02 µg/mL
same,"IC80, titer in TZM.bl cells",[11],0.1 µg/mL
same,neutralization IC50,[12],< 0.01 µg/mL
same,neutralization IC80,[12],0.01 µg/mL
same,"IC50, titer in TZM.bl cells",[13],> 15 µg/mL
same,"IC80, titer in TZM.bl cells",[13],> 15 µg/mL
same,"IC50, titer in TZM.bl cells",[14],0.01 µg/mL
same,"IC80, titer in TZM.bl cells",[14],0.05 µg/mL
same,neutralization IC50,[15],0.15 µg/mL
same,neutralization IC80,[15],0.55 µg/mL
same,neutralization IC50,[16],> 50 µg/mL
same,neutralization IC80,[16],> 50 µg/mL
same,neutralization IC50,[17],0.55 µg/mL
same,neutralization IC80,[17],2.44 µg/mL
same,"IC50, titer in TZM.bl cells",[18],0.29 µg/mL
same,"IC80, titer in TZM.bl cells",[18],2.37 µg/mL
same,neutralization IC50,[19],5.76 µg/mL
same,neutralization IC80,[19],43 µg/mL
same,neutralization IC50,[20],0.24 µg/mL
same,neutralization IC80,[20],0.81 µg/mL
same,neutralization IC50,[21],0.005 µg/mL
same,neutralization IC80,[21],0.04 µg/mL
same,neutralization IC50,[22],0.25 µg/mL
same,neutralization IC80,[22],2.03 µg/mL
same,"IC50, titer in TZM.bl cells",[23],> 50 µg/mL
same,"IC80, titer in TZM.bl cells",[23],> 50 µg/mL
same,"IC50, titer in TZM.bl cells",[24],0.35 µg/mL
same,"IC80, titer in TZM.bl cells",[24],1.28 µg/mL
same,neutralization IC50,[25],0.01 µg/mL
same,neutralization IC80,[25],0.04 µg/mL
same,neutralization IC50,[26],0.13 µg/mL
same,neutralization IC80,[26],0.49 µg/mL
same,"IC50, titer in TZM.bl cells",[27],0.28 µg/mL
same,"IC80, titer in TZM.bl cells",[27],1.28 µg/mL
same,neutralization IC50,[28],> 50 µg/mL
same,neutralization IC80,[28],> 50 µg/mL
same,neutralization IC50,[29],27.5 µg/mL
same,neutralization IC80,[29],> 50 µg/mL
same,neutralization IC50,[30],0.03 µg/mL
same,neutralization IC80,[30],0.15 µg/mL
same,"IC50, titer in TZM.bl cells",[31],0.74 µg/mL
same,"IC80, titer in TZM.bl cells",[31],3.62 µg/mL
same,neutralization IC50,[32],0.05 µg/mL
same,neutralization IC80,[32],0.21 µg/mL
same,neutralization IC50,[33],0.02 µg/mL
same,neutralization IC80,[33],0.08 µg/mL
same,"IC50, titer in TZM.bl cells",[34],0.01 µg/mL
same,"IC80, titer in TZM.bl cells",[34],0.07 µg/mL
same,neutralization IC50,[35],< 0.09 µg/mL
same,neutralization IC80,[35],0.19 µg/mL
same,"IC50, titer in TZM.bl cells",[36],0.01 µg/mL
same,"IC80, titer in TZM.bl cells",[36],0.05 µg/mL
VRC01 (antibody),"IC50, titer in TZM.bl cells",[1],0.05 µg/mL
same,"IC80, titer in TZM.bl cells",[1],0.23 µg/mL
same,"IC50, titer in TZM.bl cells",[2],0.49 µg/mL
same,"IC80, titer in TZM.bl cells",[2],1.6 µg/mL
same,"IC50, titer in TZM.bl cells",[3],0.1 µg/mL
same,"IC80, titer in TZM.bl cells",[3],0.46 µg/mL
same,"IC50, titer in TZM.bl cells",[4],0.13 µg/mL
same,"IC80, titer in TZM.bl cells",[4],0.75 µg/mL
same,"IC50, titer in TZM.bl cells",[5],0.12 µg/mL
same,"IC80, titer in TZM.bl cells",[5],0.26 µg/mL
same,"IC50, titer in TZM.bl cells",[6],0.42 µg/mL
same,"IC80, titer in TZM.bl cells",[6],1.44 µg/mL
same,"IC50, titer in TZM.bl cells",[7],0.09 µg/mL
same,"IC80, titer in TZM.bl cells",[7],0.193 µg/mL
same,"IC50, titer in TZM.bl cells",[8],0.36 µg/mL
same,"IC80, titer in TZM.bl cells",[8],1.17 µg/mL
same,"IC50, titer in TZM.bl cells",[9],0.17 µg/mL
same,"IC80, titer in TZM.bl cells",[9],0.54 µg/mL
same,"IC50, titer in TZM.bl cells",[10],0.71 µg/mL
same,"IC80, titer in TZM.bl cells",[10],2.85 µg/mL
same,"IC50, titer in TZM.bl cells",[12],0.03 µg/mL
same,"IC80, titer in TZM.bl cells",[12],0.096 µg/mL
same,"IC50, titer in TZM.bl cells",[13],> 50 µg/mL
same,"IC80, titer in TZM.bl cells",[13],> 50 µg/mL
same,"IC50, titer in TZM.bl cells",[15],0.41 µg/mL
same,"IC80, titer in TZM.bl cells",[15],1.7 µg/mL
same,"IC50, titer in TZM.bl cells",[16],> 10 µg/mL
same,"IC80, titer in TZM.bl cells",[16],> 10 µg/mL
same,"IC50, titer in TZM.bl cells",[17],0.54 µg/mL
same,"IC80, titer in TZM.bl cells",[17],2.7 µg/mL
same,"IC50, titer in TZM.bl cells",[20],0.29 µg/mL
same,"IC80, titer in TZM.bl cells",[20],1.48 µg/mL
same,"IC50, titer in TZM.bl cells",[21],0.2 µg/mL
same,"IC80, titer in TZM.bl cells",[21],0.55 µg/mL
same,"IC50, titer in TZM.bl cells",[23],> 50 µg/mL
same,"IC80, titer in TZM.bl cells",[23],> 50 µg/mL
same,"IC50, titer in TZM.bl cells",[24],14.3 µg/mL
same,"IC80, titer in TZM.bl cells",[24],> 50 µg/mL
same,"IC50, titer in TZM.bl cells",[25],0.08 µg/mL
same,"IC80, titer in TZM.bl cells",[25],0.29 µg/mL
same,"IC50, titer in TZM.bl cells",[26],1.5 µg/mL
same,"IC80, titer in TZM.bl cells",[26],4.8 µg/mL
same,"IC50, titer in TZM.bl cells",[27],0.37 µg/mL
same,"IC80, titer in TZM.bl cells",[27],1.1 µg/mL
same,"IC50, titer in TZM.bl cells",[28],0.35 µg/mL
same,"IC80, titer in TZM.bl cells",[28],1.29 µg/mL
same,"IC50, titer in TZM.bl cells",[29],2.8 µg/mL
same,"IC80, titer in TZM.bl cells",[29],12.7 µg/mL
same,"IC50, titer in TZM.bl cells",[30],0.08 µg/mL
same,"IC80, titer in TZM.bl cells",[30],0.48 µg/mL
same,"IC50, titer in TZM.bl cells",[31],0.46 µg/mL
same,"IC80, titer in TZM.bl cells",[31],1.26 µg/mL
same,"IC50, titer in TZM.bl cells",[32],0.32 µg/mL
same,"IC80, titer in TZM.bl cells",[32],1.07 µg/mL
same,"IC50, titer in TZM.bl cells",[34],0.02 µg/mL
same,"IC80, titer in TZM.bl cells",[34],0.08 µg/mL
same,"IC50, titer in TZM.bl cells",[35],0.22 µg/mL
same,"IC80, titer in TZM.bl cells",[35],1.2 µg/mL
same,"IC50, titer in TZM.bl cells",[36],0.14 µg/mL
same,"IC80, titer in TZM.bl cells",[36],0.32 µg/mL
